These results are taken from US20060051832A1, “Modified sarcosine oxidase, process for producing the same and reagent composition using the same” (Toyo Boseki Kabushiki Kaisha, priority 2002, published 2006).

Numbering of substitutions follows the chain as printed. Names and notes keep the numbering of the source.

The test system of data set [1] is Arthrobacter sp. TE1826 modified sarcosine oxidases of Example 3B (SEQ ID NO:1 variants). Nature of the data set: Km of modified sarcosine oxidases of Example 3B compared with unmodified. The following applies: modified vs unmodified; nearly equal to or within 1.5 times. Format: biochemical. As for the experimental part: (§1) • 100 mM Tris-HCl buffer (pH 8.0) (containing 200 mM sarcosine and 0.1% Triton X-100) • 0.1% 4-aminoantipyrine • 0.1% phenol • 25 U/mL peroxidase <Measurement Condition>
(§2) A reaction mixture is prepared by mixing the above Tris-HCl buffer, 4-aminoantipyrine solution, phenol solution and peroxidase solution at a ratio of 5:1:2:2. The reaction mixture (1 mL) is taken to a test tube, preliminarily warmed at 37° C. for about 5 min, and 0.05 mL of an enzyme solution is added to start the reaction. The reaction at 37° C. is performed accurately for 10 min, then 2.0 mL of an aqueous solution of 0.25% SDS is added to stop the reaction, and an absorbance at 500 nm of this solution is measured. In a blind test, distilled water instead of the enzyme solution is added to the reagent mixture, and the same manipulation is followed to measure the absorbance. […] The reactivity to proline was measured as a relative ratio of activities when sarcosine in the above reagent was replaced by L-proline at the same concentration.
(§3) Various sarcosine oxidases obtained in Example 3B and Comparative Example 1 were evaluated.
(§4) Action on proline was calculated from a relative ratio (%) of the enzyme activity using L-proline as the substrate to the enzyme activity suing sarcosine as the substrate in the above activity measurement method. […]

Substrate in data set [2]: CNCC(=O)O
Nature of the data set: Km of modified sarcosine oxidase SAOM3B. Type of data set: biochemical, Arthrobacter sp. TE1826. The note with it: other: SAOM3B, K322R, 37° C., pH 8.0. Here is the method: as §1
as §2, with “concentration. […]” for “concentration.”
as §3, §4

Substrate in data set [3]: CNCC(=O)O
Nature of the data set: Km of modified sarcosine oxidase SAOM4B. Format: biochemical, Arthrobacter sp. TE1826. The note with it: other: SAOM4B, 37° C., pH 8.0. As for the experimental part:
as §1
as §2, with “concentration. […]” for “concentration.”
as §3, §4

Regarding `CNCC(=O)O` [sarcosine], in data set [1], the “Km value for sarcosine relative to the Km value of the unmodified sarcosine oxidase” value was not above 1.5 times.

B1: Arthrobacter sp. TE1826 sarcosine oxidase (SEQ ID NO:1) variant SAOM3B, K322R (Arthrobacter sp. TE1826; K322R) (protein)
chain: MSIKKDYDVIVVGAGSMGMAAGYYLSKQGVKTLLVDSFHPPHTNGSHHGDTRIIRHAYGEGREYVPFALRAQELWYELEKETHHKIFTKTGVLVFGPKGEAPFVAETMEAAKEHSLDVDLLEGSEINKRWPGVTVPENYNAIFEKNSGVLFSENCIRAYRELAEANGAKVLTYTPVEDFEIAEDFVKIQTAYGSFTASKLIVSMGAWNSKLLSKLNIEIPLQPYRQVVGFFECDEKKYSNTHGYPAFMVEVPTGIYYGFPSFGGCGLKIGYHTYGQKIDPDTINREFGIYPEDEGNIRKFLETYMPGATGELKSGDVCMYTRTPDEHFVIDLHPQFSNVAIAAGFSGHGFKFSSVVGETLSQLAVTGKTEHDISIFSINRPALKQKETI
Consider B1, for which, in data set [2], the Km is 4.7 mM mM.

B2: Arthrobacter sp. TE1826 sarcosine oxidase (SEQ ID NO:1) variant SAOM4B, V94G, E250Q (Arthrobacter sp. TE1826; E250Q/V94G) (protein)
chain: B1 chain with V94G, E250Q, R322K
Regarding B2, in data set [3], the Km is given as 3.4 mM mM.
